Assay results taken from patent US12201679B2, “Epitope-targeted peptide immunostimulants” (priority 2019, dated 2025).
“Also recorded” adds a separate entry of the source. Ends that are not written are not given here.

How the values were obtained:
[1] = Isocratic point, elution from C18 prep-scale column; format: physicochemical
Method: PCC compounds were purified on a Waters Autopurification system, which isolated compounds based on MS peaks corresponding to protonated [M+1H]^+ and [M+2H]^2+, and/or sodium adducts [M+Na]^+ and [M+2Na]^2+. The isocratic points of PCCs were determined based on the elution of the compound from a C18 prep-scale column. Synthetic epitopes were either purified on the Waters Autopurification System, or by semi-preparative HPLC and then using matrix-assisted laser desorption/ionization mass spectroscopy to identify fractions with the desired m/z ratio. The resulting peptides were lyophilized, the yield determined by mass difference or UV-visible absorbance, and resuspended at a concentration of up to 10 mM peptide in DMSO. Peptides were stored at −80° C. before thawing for each use.

[2] = test system: K. pneumoniae cells (strain BAA 1705); assay: Gentamicin protection assay: phagocytosis and opsonophagocytic killing (OPK) by macrophages; format: cell-based, Klebsiella pneumoniae; settings: 1 h, FIG. 7B
Method: It also tested whether DNP-conjugated EPIs could promote the opsonophagocytic killing (OPK) of K. pneumoniae by macrophages. This was tested by using an OPK assay. Briefly, K. pneumoniae cells were treated with EPI and then anti-DNP antibody before being exposed to macrophages for either 6 or 24 hours. During this incubation period, macrophages that recognize K. pneumoniae cells will phagocytose them, and phagocytosed bacteria will remain viable for up to 6 hours, but within 24 hours are rendered inviable by OPK. Thus, macrophages were isolated after 6 and 24 hours of incubation with K. pneumoniae, lysed them, and plated and grew the lysate, which yielded bacterial colonies that reflect the phagocytosis (at 6 hrs) or OPK (at 24 hrs) of bacteria.
Given that cy(LLFFF)-DNP (SEQ ID NO:5) recruits antibodies to K. pneumoniae surfaces, it was expected that K. pneumoniae opsonized in this manner would be more susceptible to phagocytosis by macrophages. AR-PCC-driven phagocytosis and OPK were quantified by a gentamicin protection assay, as depicted in FIG. 7A. For this assay, K. pneumoniae cells (strain BAA 1705) were treated with cy(LLFFF)-DNP (SEQ ID NO:5), opsonized by anti-DNP antibodies, and then incubated with murine bone-marrow-derived macrophages (BMDMs). BMDMs were subsequently exposed to a solution containing gentamicin, to which K. pneumoniae strain BAA 1705 is susceptible, to kill any extracellular bacteria. Phagocytosed bacteria remain viable inside BMDMs for at least 1 h, yet are rendered inviable after 24 h by OPK (FIG. 13). Macrophages harvested at 1 h and 24 h were lysed and plated to generate bacterial colonies, which were enumerated to quantify phagocytosis and OPK.
Klebsiella pneumoniae BAA1705 was treated with DNP-PCCs followed by incubation with anti-DNP antibody, as described above in the “Cell-Based ELISAs” section. These opsonized bacteria were then used to infect BMDMs at a multiplicity of infection of 50 for 0.5 h at 37° C. Bacteria were then washed by using RPMI 1640 Media and BMDMs were left in cell culture medium containing gentamicin (100 μg/ml). After 1 h and 24 h BMDMs were washed to remove gentamicin and intracellular bacteria were harvested by lysing BMDMs in RPMI media containing 0.2% Triton X 100. Bacterial CFUs were enumerated by plating onto LB agar. Bacterial counts at 1 h indicated the degree of opsonization while those at 24 h served as a measure of microbicidal activity of macrophages. For these measurements, anti-MrkA antibody and K. pneumoniae antiserum were used at dilutions of 5 μg/mL each.

[3] = test system: K. pneumoniae (strains BAA 1705 & 2146); assay: Whole-cell ELISA, biotinylated PCC, multidrug-resistant K. pneumoniae; format: cell-based, Klebsiella pneumoniae; settings: whole-cell ELISA, FIG. 5C
Method: Detection of the binding of biotinylated PCCs to bacterial surface was performed as follows. 10^8 bacteria from a culture grown overnight were used for each test. […] After washing thrice with PBS to remove unbound PCCs, bacteria were incubated with Streptavidin-HRP (1:1000) for 1 h at 37° C. Bacteria were washed thoroughly and the TMB reagent was added until visible coloration was observed. The reaction was quenched using 2N H2SO4 and absorbance was measured at 450 nm.

[4] = target: full-length recombinant MrkA protein (Klebsiella pneumoniae, UniProt P12267); format: binding; settings: ratio of ELISA signals, FIG. 4B
Chain of full-length recombinant MrkA protein (P12267 23-202): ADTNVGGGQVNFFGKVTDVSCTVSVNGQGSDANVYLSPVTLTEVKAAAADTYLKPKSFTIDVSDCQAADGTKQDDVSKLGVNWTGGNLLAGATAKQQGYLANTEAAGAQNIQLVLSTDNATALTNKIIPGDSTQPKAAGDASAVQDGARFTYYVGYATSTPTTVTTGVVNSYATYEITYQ
Text: HPraGly is present before X1 in each peptide and Az4 follows X5 in each peptide.

MrkA protein = MrkA protein (Klebsiella pneumoniae, UniProt P12267); assay: Sandwich ELISA, MrkA binding in mouse sera; settings: MrkA 250 nM in 10 and 100% mouse sera
Chain of MrkA protein (P12267 23-202): as above
Text: By comparison, the addition of polyarginine tags reduced the IP to near 40% without substantial loss in MrkA avidity (three leftmost data points in FIG. 4B).

cy(LLFFF)+R6 (LLFFFRRRRRR; also: cyclic over residues 1-5, ring closure not given here)
isocratic point (IP) [1]: ~40%
reduction (improvement) in IP versus cy(LLFFF) [1]: ~35%
phagocytosis at 1 h, DNP-tagged AR-PCC plus anti-DNP (words) [2]: also enhanced phagocytosis
phagocytosis at 1 h, DNP-tagged AR-PCC plus anti-DNP (words) ([2]; listed as cy(LLFFF)-R6): comparable to that of cy(LLFFF)-DNP
binding selectivity towards MrkA-expressing K. pneumoniae cells versus E. coli and S. typhimurium [3]: similarly high selectivity
stronger affinity to MrkA over cy(LLFFF) [4]: 22%
binding to MrkA protein in mouse sera (MrkA protein): binds MrkA protein in the context of sera; also recorded: bound MrkA protein in solutions of 10 and 100% mouse sera
